For the experiment, the target named is T1, endogenous NIBP (NIK and IKK2 Binding Protein) in MCF7 cells (human (MCF7 cells; species not printed …, UniProt Q96Q05 1-1148, limits assumed).
T1 construct: Immunoprecipitated from whole cell lysate with anti-NIBP antibody
Put plainly: co-immunoprecipitation with anti-NIBP antibody from MCF7 lysate, immunoblot anti-IKK1/2 and anti-IKK1. An excerpt:
Endogenous NIBP interacts with endogenous IKK2 in breast cancer cells. NIBP association with IKK2, but not IKK1, occurred in MCF7 cells. The level of IKK1 was confirmed by immunoblotting of the same blot (without stripping) with a specific anti-IKK1 antibody. The IKK2 co-immunoprecipitated with NIBP was phosphorylated as shown by the band shift compared to the input and the immunoblotting with anti-phospho IKK1/2(Ser-177/181) antibody (FIG. 4).

T1 sequence (Q96Q05 whole entry): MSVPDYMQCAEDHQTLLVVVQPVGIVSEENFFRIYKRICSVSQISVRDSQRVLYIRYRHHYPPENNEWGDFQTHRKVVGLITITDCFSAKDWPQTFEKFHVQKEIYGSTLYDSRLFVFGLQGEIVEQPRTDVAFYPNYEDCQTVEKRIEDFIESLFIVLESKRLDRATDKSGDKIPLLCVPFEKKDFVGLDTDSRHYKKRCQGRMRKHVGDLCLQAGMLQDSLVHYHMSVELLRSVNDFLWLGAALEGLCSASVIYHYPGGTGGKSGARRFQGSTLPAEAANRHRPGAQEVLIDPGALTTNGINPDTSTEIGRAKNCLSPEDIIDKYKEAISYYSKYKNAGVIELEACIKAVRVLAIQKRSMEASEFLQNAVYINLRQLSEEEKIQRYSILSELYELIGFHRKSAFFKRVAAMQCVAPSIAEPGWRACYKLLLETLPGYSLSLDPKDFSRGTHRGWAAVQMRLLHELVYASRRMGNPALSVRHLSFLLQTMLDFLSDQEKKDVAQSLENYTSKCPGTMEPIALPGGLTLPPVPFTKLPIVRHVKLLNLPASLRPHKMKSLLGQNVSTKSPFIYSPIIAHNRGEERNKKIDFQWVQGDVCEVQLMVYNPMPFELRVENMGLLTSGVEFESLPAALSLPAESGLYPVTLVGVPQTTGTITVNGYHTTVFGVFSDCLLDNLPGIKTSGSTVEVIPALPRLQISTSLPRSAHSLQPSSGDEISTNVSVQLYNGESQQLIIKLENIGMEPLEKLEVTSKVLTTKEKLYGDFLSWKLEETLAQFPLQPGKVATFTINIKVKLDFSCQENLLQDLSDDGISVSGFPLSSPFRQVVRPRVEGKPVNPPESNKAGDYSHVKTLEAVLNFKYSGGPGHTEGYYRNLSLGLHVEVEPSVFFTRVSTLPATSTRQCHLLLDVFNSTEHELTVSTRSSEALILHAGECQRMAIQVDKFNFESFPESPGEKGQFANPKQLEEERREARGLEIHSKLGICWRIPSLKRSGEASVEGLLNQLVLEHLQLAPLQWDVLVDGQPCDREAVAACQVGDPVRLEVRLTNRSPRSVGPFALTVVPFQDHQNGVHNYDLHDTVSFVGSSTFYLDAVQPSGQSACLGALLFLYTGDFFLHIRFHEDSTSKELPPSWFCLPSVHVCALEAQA

B1: endogenous IKK1 in MCF7 cells (enzyme, UniProt O15111 1-745, looked up)
chain: MERPPGLRPGAGGPWEMRERLGTGGFGNVCLYQHRELDLKIAIKSCRLELSTKNRERWCHEIQIMKKLNHANVVKACDVPEELNILIHDVPLLAMEYCSGGDLRKLLNKPENCCGLKESQILSLLSDIGSGIRYLHENKIIHRDLKPENIVLQDVGGKIIHKIIDLGYAKDVDQGSLCTSFVGTLQYLAPELFENKPYTATVDYWSFGTMVFECIAGYRPFLHHLQPFTWHEKIKKKDPKCIFACEEMSGEVRFSSHLPQPNSLCSLVVEPMENWLQLMLNWDPQQRGGPVDLTLKQPRCFVLMDHILNLKIVHILNMTSAKIISFLLPPDESLHSLQSRIERETGINTGSQELLSETGISLDPRKPASQCVLDGVRGCDSYMVYLFDKSKTVYEGPFASRSLSDCVNYIVQDSKIQLPIIQLRKVWAEAVHYVSGLKEDYSRLFQGQRAAMLSLLRYNANLTKMKNTLISASQQLKAKLEFFHKSIQLDLERYSEQMTYGISSEKMLKAWKEMEEKAIHYAEVGVIGYLEDQIMSLHAEIMELQKSPYGRRQGDLMESLEQRAIDLYKQLKHRPSDHSYSDSTEMVKIIVHTVQSQDRVLKELFGHLSKLLGCKQKIIDLLPKVEVALSNIKEADNTVMFMQGKRQKEIWHLLKIACTQSSARSLVGSSLEGAVTPQTSAWLPPTSAEHDHSLSCVVTPQDGETSAQMIEENLNCLGHLSTIIHEANEEQGNSMMNLDWSWLTE
notes: Endogenous protein in cell lysate
For the molecule B1, the binding result was “no binding”.

These data come from patent US20120258539A1 (TEMPLE UNIVERSITY OF THE COMMONWEALTH OF HIGHER EDUCATION …, published 2012).
